One molecule from patent US20240002514A1 can be followed below.

This assay has as its target human PD-L1 expressed on the cell surface (CHO cells expressing human PD-L1; Promega CS187103 / 187103 cells) (human) (UniProt Q9NZQ7).

Sequence of human PD-L1 expressed on the cell surface (CHO cells expressing human PD-L1; Promega CS187103 / 187103 cells) (human) (Q9NZQ7 19-290): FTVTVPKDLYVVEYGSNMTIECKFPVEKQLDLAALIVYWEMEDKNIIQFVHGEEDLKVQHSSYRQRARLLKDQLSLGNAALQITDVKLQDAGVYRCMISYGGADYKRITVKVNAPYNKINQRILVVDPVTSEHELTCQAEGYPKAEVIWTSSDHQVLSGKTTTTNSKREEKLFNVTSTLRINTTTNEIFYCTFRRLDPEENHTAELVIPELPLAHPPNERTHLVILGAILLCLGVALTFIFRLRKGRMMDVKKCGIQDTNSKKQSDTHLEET

B1: 29E.2A3 (antibody, from another filing, V domains shown)
VH: EVQLQQSGPELVKPGASVKMSCKASGYTFTSYVMHWVKQKPGQGLEWIGYVNPFNDGTKYNEMFKGKATLTSDKSSSTAYMELSSLTSEDSAVYYCARQAWGYPWGQGTLVTVSA
VL: DIVLTQSPASLAVSLGQRATISCRATESVEYYGTSLVQWYQQKPGQPPKLLIYAASSVDSGVPARFSGSGSGTDFSLTIHPVEEDDIAMYFCQQSRRVPYTFGGGTKLEIK
For the molecule B1, the EC50, PD-1/PD-L1 blockade (% PDL1 Blockade, NFAT-luciferase reporter) stood at 0.17 nM.
